T1: FRETS-VWF73, P04275
T1 chain: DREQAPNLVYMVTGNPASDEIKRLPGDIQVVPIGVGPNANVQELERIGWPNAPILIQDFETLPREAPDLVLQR


What was measured:
FRETS-VWF73, P04275 = target: T1, FRETS-VWF73, P04275
[1] = target: T2, von Willebrand factor derived from human plasma (human, UniProt P04275 764-2813); assay: ELISA, plasma VWF immobilized on plate, relative to wild type W688X
T2 construct: mature; also called VWF; natural substrate VWF
Experimental: Each of the purified mutants of Example 3 was evaluated for their binding ability to VWF derived from human plasma immobilized on ELISA plate as described in Non-patent reference 8. The concentration was normalized by sandwich ELISA using the anti-human ADAMTS-13 rabbit polyclonal antibody and an HRP labeled form of the anti-FLAGM2 murine monoclonal antibody (SIGMA CORPORATION) as described above and the VWF binding ability per unit concentration was quantified. Finally, the mutants were evaluated for a relative activity as compared to the specific activity of wild type W688X with no alanine substitution, the specific activity of which is 1.

[2] = target: immunoglobulin G (IgG) fractions isolated from acquired TTP patients

Binder	binding result [1]	cleaving activity to FRETS-VWF73, relative activity against wild type W688X (FRETS-VWF73, P04275)	cleaving activity to FRETS-VWF73 per 1 min (ΔFU/min) with and without patient antibodies [2]
ADAMTS-13W688X mutant E634A (protein) AAGGILHLELLVAVGPDVFQAHQEDTERYVLTNLNIGAELLRDPSLGAQFRVHLVKMVILTEPEGAPNITANLTSSLLSVCGWSQTINPEDDTDPGHADLVLYITRFDLELPDGNRQVRGVTQLGGACSPTWSCLITEDTGFDLGVTIAHEIGHSFGLEHDGAPGSGCGPSGHVMASDGAAPRAGLAWSPCSRRQLLSLLSAGRARCVWDPPRPQPGSAGHPPDAQPGLYYSANEQCRVAFGPKAVACTFAREHLDMCQALSCHTDPLDQSSCSRLLVPLLDGTECGVEKWCSKGRCRSLVELTPIAAVHGRWSSWGPRSPCSRSCGGGVVTRRRQCNNPRPAFGGRACVGADLQAEMCNTQACEKTQLEFMSQQCARTDGQPLRSSPGGASFYHWGAAVPHSQGDALCRHMCRAIGESFIMKRGDSFLDGTRCMPSGPREDGTLSLCVSGSCRTFGCDGRMDSQQVWDRCQVCGGDNSTCSPRKGSFTAGRAREYVTFLTVTPNLTSVYIANHRPLFTHLAVRIGGRYVVAGKMSISPNTTYPSLLEDGRVEYRVALTADRLPRLEEIRIWGPLQEDADIQVYRRYGEEYGNLTRPDITFTYFQPKPRQAWVW			depending on patient antibody, K608A, E634A and D635A had a sufficient enzymatic activity
ADAMTS-13W688X mutant D635A (protein) AAGGILHLELLVAVGPDVFQAHQEDTERYVLTNLNIGAELLRDPSLGAQFRVHLVKMVILTEPEGAPNITANLTSSLLSVCGWSQTINPEDDTDPGHADLVLYITRFDLELPDGNRQVRGVTQLGGACSPTWSCLITEDTGFDLGVTIAHEIGHSFGLEHDGAPGSGCGPSGHVMASDGAAPRAGLAWSPCSRRQLLSLLSAGRARCVWDPPRPQPGSAGHPPDAQPGLYYSANEQCRVAFGPKAVACTFAREHLDMCQALSCHTDPLDQSSCSRLLVPLLDGTECGVEKWCSKGRCRSLVELTPIAAVHGRWSSWGPRSPCSRSCGGGVVTRRRQCNNPRPAFGGRACVGADLQAEMCNTQACEKTQLEFMSQQCARTDGQPLRSSPGGASFYHWGAAVPHSQGDALCRHMCRAIGESFIMKRGDSFLDGTRCMPSGPREDGTLSLCVSGSCRTFGCDGRMDSQQVWDRCQVCGGDNSTCSPRKGSFTAGRAREYVTFLTVTPNLTSVYIANHRPLFTHLAVRIGGRYVVAGKMSISPNTTYPSLLEDGRVEYRVALTEARLPRLEEIRIWGPLQEDADIQVYRRYGEEYGNLTRPDITFTYFQPKPRQAWVW			depending on patient antibody, K608A, E634A and D635A had a sufficient enzymatic activity

Second part, led by results:

binding result [1]	Binder	cleaving activity to FRETS-VWF73, relative activity against wild type W688X (FRETS-VWF73, P04275)	cleaving activity to FRETS-VWF73 per 1 min (ΔFU/min) with and without patient antibodies [2]
binds	ADAMTS-13W688X mutant R349A (enzyme, human, UniProt Q76LX8 75-688, looked up, Disintegrin-like domain mutant; also called R349(11); not shown: C-terminal FLAG tag) AAGGILHLELLVAVGPDVFQAHQEDTERYVLTNLNIGAELLRDPSLGAQFRVHLVKMVILTEPEGAPNITANLTSSLLSVCGWSQTINPEDDTDPGHADLVLYITRFDLELPDGNRQVRGVTQLGGACSPTWSCLITEDTGFDLGVTIAHEIGHSFGLEHDGAPGSGCGPSGHVMASDGAAPRAGLAWSPCSRRQLLSLLSAGRARCVWDPPRPQPGSAGHPPDAQPGLYYSANEQCRVAFGPKAVACTFAREHLDMCQALSCHTDPLDQSSCSALLVPLLDGTECGVEKWCSKGRCRSLVELTPIAAVHGRWSSWGPRSPCSRSCGGGVVTRRRQCNNPRPAFGGRACVGADLQAEMCNTQACEKTQLEFMSQQCARTDGQPLRSSPGGASFYHWGAAVPHSQGDALCRHMCRAIGESFIMKRGDSFLDGTRCMPSGPREDGTLSLCVSGSCRTFGCDGRMDSQQVWDRCQVCGGDNSTCSPRKGSFTAGRAREYVTFLTVTPNLTSVYIANHRPLFTHLAVRIGGRYVVAGKMSISPNTTYPSLLEDGRVEYRVALTEDRLPRLEEIRIWGPLQEDADIQVYRRYGEEYGNLTRPDITFTYFQPKPRQAWVW	led to the significantly reduced enzyme activity	
binds	ADAMTS-13W688X mutant R498A (enzyme, human, UniProt Q76LX8 75-688, looked up, Cysteine-rich domain mutant; also called R498(29); not shown: C-terminal FLAG tag) AAGGILHLELLVAVGPDVFQAHQEDTERYVLTNLNIGAELLRDPSLGAQFRVHLVKMVILTEPEGAPNITANLTSSLLSVCGWSQTINPEDDTDPGHADLVLYITRFDLELPDGNRQVRGVTQLGGACSPTWSCLITEDTGFDLGVTIAHEIGHSFGLEHDGAPGSGCGPSGHVMASDGAAPRAGLAWSPCSRRQLLSLLSAGRARCVWDPPRPQPGSAGHPPDAQPGLYYSANEQCRVAFGPKAVACTFAREHLDMCQALSCHTDPLDQSSCSRLLVPLLDGTECGVEKWCSKGRCRSLVELTPIAAVHGRWSSWGPRSPCSRSCGGGVVTRRRQCNNPRPAFGGRACVGADLQAEMCNTQACEKTQLEFMSQQCARTDGQPLRSSPGGASFYHWGAAVPHSQGDALCRHMCRAIGESFIMKAGDSFLDGTRCMPSGPREDGTLSLCVSGSCRTFGCDGRMDSQQVWDRCQVCGGDNSTCSPRKGSFTAGRAREYVTFLTVTPNLTSVYIANHRPLFTHLAVRIGGRYVVAGKMSISPNTTYPSLLEDGRVEYRVALTEDRLPRLEEIRIWGPLQEDADIQVYRRYGEEYGNLTRPDITFTYFQPKPRQAWVW	led to the significantly reduced enzyme activity	

From patent US8685665 (CHEMO SERO THERAPEUTIC RESEARCH INSTITUTE, dated 2014)
